This is an account of results in publication PMC10760632, “Characterization of the SF3B1–SUGP1 interface reveals how numerous cancer mutations cause mRNA missplicing” (Genes & Development, 2023).

In the experiment the target is T1, SF3B core complex (human, UniProt O75533 453-1304; Q15393 1-1217; Q9BWJ5 1-86; Q7RTV0 1-98).
T1 construct: SF3B1 C-terminal HEAT domain, residues 453-1304; SF3B3, residues 1-1217; SF3B5, residues 1-86; PHF5A, residues 1-98; SF3B3 carries an N-terminal His6 and a TEV protease cleavage site; no cleavage step is described in the purification; also called SF3B complex; source: Tni insect cells (baculovirus), coexpressed, purified (Ni-NTA, Superdex 200 gel filtration); copies: + + +
T1 sequence (O75533 453-1304, chain 1 of 4): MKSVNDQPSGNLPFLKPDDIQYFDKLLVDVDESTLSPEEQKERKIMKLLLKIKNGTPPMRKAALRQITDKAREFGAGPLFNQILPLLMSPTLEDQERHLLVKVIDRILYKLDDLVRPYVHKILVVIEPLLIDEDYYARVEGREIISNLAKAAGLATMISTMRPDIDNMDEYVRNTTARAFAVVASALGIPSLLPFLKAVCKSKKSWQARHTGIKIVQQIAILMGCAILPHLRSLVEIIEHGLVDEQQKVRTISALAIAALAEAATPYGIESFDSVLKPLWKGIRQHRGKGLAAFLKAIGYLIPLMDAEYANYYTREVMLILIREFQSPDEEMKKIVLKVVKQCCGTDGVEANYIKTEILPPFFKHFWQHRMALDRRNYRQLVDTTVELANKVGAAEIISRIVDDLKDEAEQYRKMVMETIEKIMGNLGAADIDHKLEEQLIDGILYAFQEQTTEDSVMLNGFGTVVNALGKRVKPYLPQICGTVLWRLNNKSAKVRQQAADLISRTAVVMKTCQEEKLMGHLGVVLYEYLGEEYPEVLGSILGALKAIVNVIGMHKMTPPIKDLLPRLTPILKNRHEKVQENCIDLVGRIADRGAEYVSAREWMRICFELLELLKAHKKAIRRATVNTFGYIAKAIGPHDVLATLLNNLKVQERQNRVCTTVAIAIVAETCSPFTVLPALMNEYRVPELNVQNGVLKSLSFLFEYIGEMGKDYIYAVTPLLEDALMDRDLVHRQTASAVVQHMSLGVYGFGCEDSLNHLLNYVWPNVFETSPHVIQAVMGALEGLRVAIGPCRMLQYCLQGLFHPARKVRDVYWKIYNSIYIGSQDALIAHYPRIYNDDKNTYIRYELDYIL
T1 sequence (Q15393 whole entry, chain 2 of 4, the tested form may be a part): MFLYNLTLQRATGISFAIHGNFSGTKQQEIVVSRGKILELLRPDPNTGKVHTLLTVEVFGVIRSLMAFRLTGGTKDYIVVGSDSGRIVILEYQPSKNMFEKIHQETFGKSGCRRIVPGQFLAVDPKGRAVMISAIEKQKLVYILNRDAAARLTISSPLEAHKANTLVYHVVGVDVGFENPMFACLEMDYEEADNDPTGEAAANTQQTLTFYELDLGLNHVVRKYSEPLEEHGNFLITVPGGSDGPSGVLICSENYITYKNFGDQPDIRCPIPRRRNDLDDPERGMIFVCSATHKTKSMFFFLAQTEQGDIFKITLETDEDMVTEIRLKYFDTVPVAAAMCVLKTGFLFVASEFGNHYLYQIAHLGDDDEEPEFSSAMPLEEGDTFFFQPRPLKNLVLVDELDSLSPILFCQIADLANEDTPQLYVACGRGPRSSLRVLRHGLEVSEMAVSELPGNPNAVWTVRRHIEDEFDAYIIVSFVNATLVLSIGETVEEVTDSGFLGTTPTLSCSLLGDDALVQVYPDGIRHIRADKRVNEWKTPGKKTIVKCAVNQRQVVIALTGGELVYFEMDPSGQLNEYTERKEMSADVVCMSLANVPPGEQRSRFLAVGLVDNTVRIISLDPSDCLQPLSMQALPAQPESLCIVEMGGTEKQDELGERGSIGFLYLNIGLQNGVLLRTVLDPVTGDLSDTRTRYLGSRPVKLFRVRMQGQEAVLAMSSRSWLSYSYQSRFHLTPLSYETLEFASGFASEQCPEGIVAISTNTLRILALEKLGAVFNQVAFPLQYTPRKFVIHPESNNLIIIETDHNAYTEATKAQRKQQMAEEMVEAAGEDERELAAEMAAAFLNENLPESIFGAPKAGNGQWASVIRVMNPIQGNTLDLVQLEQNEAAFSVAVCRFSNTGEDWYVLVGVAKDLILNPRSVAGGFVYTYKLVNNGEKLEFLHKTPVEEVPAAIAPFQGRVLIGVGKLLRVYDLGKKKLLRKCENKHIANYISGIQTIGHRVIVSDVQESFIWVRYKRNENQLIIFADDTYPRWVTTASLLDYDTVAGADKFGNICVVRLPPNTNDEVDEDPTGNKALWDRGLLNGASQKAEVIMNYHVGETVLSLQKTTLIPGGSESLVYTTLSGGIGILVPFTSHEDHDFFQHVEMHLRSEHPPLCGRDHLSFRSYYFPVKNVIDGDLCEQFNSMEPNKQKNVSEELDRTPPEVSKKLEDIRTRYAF
T1 sequence (Q9BWJ5 whole entry, chain 3 of 4, the tested form may be a part): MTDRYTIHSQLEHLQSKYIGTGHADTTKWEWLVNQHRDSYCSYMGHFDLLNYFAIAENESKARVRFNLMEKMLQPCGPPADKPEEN
T1 sequence (Q7RTV0 1-98, chain 4 of 4): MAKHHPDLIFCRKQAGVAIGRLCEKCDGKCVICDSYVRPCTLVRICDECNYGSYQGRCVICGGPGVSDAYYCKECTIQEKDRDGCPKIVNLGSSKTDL
The experiment in a line: SEC; purified SF3B complex and DHX15 (113–795)–SUGP1 (433–645) heterodimer mixed at a molar ratio of 1:5, overnight at 4°C, Superose 6 Increase 10/300 in 20 mM HEPES pH 7.9, 300 mM KCl, 5% glycerol, 5 mM DTT; complex fractions rerun and peak analysed by SDS-PAGE. The settings on record: both partners purified. A general note: Size exclusion chromatography separates by hydrodynamic size, large species first.

B1: DHX15 (113–795)–SUGP1 (433–645) heterodimer (complex, human)
chain 1: QCINPFTNLPHTPRYYDILKKRLQLPVWEYKDRFTDILVRHQSFVLVGETGSGKTTQIPQWCVEYMRSLPGPKRGVACTQPRRVAAMSVAQRVADEMDVMLGQEVGYSIRFEDCSSAKTILKYMTDGMLLREAMNDPLLERYGVIILDEAHERTLATDILMGVLKEVVRQRSDLKVIVMSATLDAGKFQIYFDNCPLLTIPGRTHPVEIFYTPEPERDYLEAAIRTVIQIHMCEEEEGDLLLFLTGQEEIDEACKRIKREVDDLGPEVGDIKIIPLYSTLPPQQQQRIFEPPPPKKQNGAIGRKVVVSTNIAETSLTIDGVVFVIDPGFAKQKVYNPRIRVESLLVTAISKASAQQRAGRAGRTRPGKCFRLYTEKAYKTEMQDNTYPEILRSNLGSVVLQLKKLGIDDLVHFDFMDPPAPETLMRALELLNYLAALNDDGDLTELGSMMAEFPLDPQLAKMVIASCDYNCSNEVLSITAMLSVPQCFVRPTEAKKAADEAKMRFAHIDGDHLTLLNVYHAFKQNHESVQWCYDNFINYRSLMSADNVRQQLSRIMDRFNLPRRSTDFTSRDYYINIRKALVTGYFMQVAHLERTGHYLTVKDNQVVQLHPSTVLDHKPEWVLYNEFVLTTKNYIRTCTDIKPEWLVKIAPQYYDMSNFPQCEAKRQLDRIIAKLQSKEYSQY
chain 2: GVTELSDAQKKQLKEQQEMQQMYDMIMQHKRAMQDMQLLWEKAVQQHQHGYDSDEEVDSELGTWEHQLRRMEMDKTREWAEQLTKMGRGKHFIGDFLPPDELEKFMETFKALKEGREPDYSEYKEFKLTVENIGYQMLMKMGWKEGEGLGSEGQGIKNPVNKGTTTVDGAGFGIDRPAELSKEDDEYEAFRKRMMLAYRFRPNPLNNPRRPYY
notes: DHX15 (DEAH-box helicase 15), residues 113-795, lacks the N-terminal unstructured region; DHX15 was fused with N-terminal His6, MBP and a TEV protease cleavage site; also called DHX15–SUGP1; DHX15–SUGP1 heterodimer; source: Tni insect cells (baculovirus), coexpressed, purified as in Zhang et al. 2022a
For B1, the binding result is on record as “binds”.
